# Measurements published in IntAct's records for PubMed 25402481.
# B1: ADP-ribosylation factor-like protein 6 (Homo sapiens), Q9H0F7-1 (parent)
# chain: MGLLDRLSVLLGLKKKEVHVLCLGLDNSGKTTIINKLKPSNAQSQNILPTIGFSIEKFKSSSLSFTVFDMSGQGRYRNLWEHYYKEGQAIIFVIDSSDRLRMVVAKEELDTLLNHPDIKHRRIPILFFANKMDLRDAVTSVKVSQLLCLENIKDKPWHICASDAIKGEGLQEGVDWLQDQIQTVKT
# partner: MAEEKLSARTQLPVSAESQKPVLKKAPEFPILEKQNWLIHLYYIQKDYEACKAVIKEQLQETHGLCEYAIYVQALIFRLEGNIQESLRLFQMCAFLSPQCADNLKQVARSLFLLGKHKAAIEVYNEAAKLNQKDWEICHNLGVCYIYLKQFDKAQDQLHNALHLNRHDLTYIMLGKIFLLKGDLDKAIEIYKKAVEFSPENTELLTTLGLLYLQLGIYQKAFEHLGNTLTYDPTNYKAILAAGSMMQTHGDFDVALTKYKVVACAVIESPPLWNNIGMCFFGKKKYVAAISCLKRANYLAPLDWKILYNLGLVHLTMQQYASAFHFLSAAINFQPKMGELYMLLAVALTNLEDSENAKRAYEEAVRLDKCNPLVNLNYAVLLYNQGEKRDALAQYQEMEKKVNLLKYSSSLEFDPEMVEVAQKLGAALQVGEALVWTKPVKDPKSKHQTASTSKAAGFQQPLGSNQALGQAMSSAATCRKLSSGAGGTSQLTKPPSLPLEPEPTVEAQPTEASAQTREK
# B2: BBSome complex member BBS1 (Homo sapiens), Q8NFJ9 (parent)
# chain: MAAASSSDSDACGAESNEANSKWLDAHYDPMANIHTFSACLALADLHGDGEYKLVVGDLGPGGQQPRLKVLKGPLVMTESPLPALPAAAATFLMEQHEPRTPALALASGPCVYVYKNLRPYFKFSLPQLPPNPLEQDLWNQAKEDRIDPLTLKEMLESIRETAEEPLSIQSLRFLQLELSEMEAFVNQHKSNSIKRQTVITTMTTLKKNLADEDAVSCLVLGTENKELLVLDPEAFTILAKMSLPSVPVFLEVSGQFDVEFRLAAACRNGNIYILRRDSKHPKYCIELSAQPVGLIRVHKVLVVGSTQDSLHGFTHKGKKLWTVQMPAAILTMNLLEQHSRGLQAVMAGLANGEVRIYRDKALLNVIHTPDAVTSLCFGRYGREDNTLIMTTRGGGLIIKILKRTAVFVEGGSEVGPPPAQAMKLNVPRKTRLYVDQTLREREAGTAMHRAFQTDLYLLRLRAARAYLQALESSLSPLSTTAREPLKLHAVVQGLGPTFKLTLHLQNTSTTRPVLGLLVCFLYNEALYSLPRAFFKVPLLVPGLNYPLETFVESLSNKGISDIIKVLVLREGQSAPLLSAHVNMPGSEGLAAA
# partner: B1 chain
# Variants of: B1
# Settings: with bbs4_bovin BBS4, Q1JQ97
row,effect of a mutation on the interaction,Variant
1,disrupting interaction strength,MGLLDRLSVLLGLKKKEVHVLCLGLDNSGKTTIINKLKPSNAQSQNILPTIGFSIEKFKSSSLSFTVFDMSGQGRYRNLWEHYYKEGQAIIFVIDSSDRLRMVVAKEALDTLLNHPDIKHRRIPILFFANKMDLRDAVTSVKVSQLLCLENIKDKPWHICASDAIKGEGLQEGVDWLQDQIQTVKT [E108A]
2,disrupting interaction strength,MGLLDRLSVLLGLKKKEVHVLCLGLDNSGKTTIINKLKPSNAQSQNILPTIGFSIEKFKSSSLSFTVFDMSGQGRYANLWEHYYKEGQAIIFVIDSSDRLRMVVAKEELDTLLNHPDIKHRRIPILFFANKMDLRDAVTSVKVSQLLCLENIKDKPWHICASDAIKGEGLQEGVDWLQDQIQTVKT [R77A]
3,disrupting interaction strength,MGLLDRLSVLLGLKKKEVHVLCLGLDNSGKTTIINKLKPSNAQSQNILPTIGFSIEKFKSSSLSFTVFDMSGQGRYRNLWEHYYKEGQAIIFVIDSSDRERMVVAKEELDTLLNHPDIKHRRIPILFFANKMDLRDAVTSVKVSQLLCLENIKDKPWHICASDAIKGEGLQEGVDWLQDQIQTVKT [L100E]

# Variants of: B2
# Settings: with ARL6, Q9H0F7-1
row,effect of a mutation on the interaction,Variant
1,disrupting interaction strength,MAAASSSDSDACGAESNEANSKWLDAHYDPMANIHTFSACLALADLHGDGEYKLVVGDLGPGGQQPRLKVLKGPLVMTESPLPALPAAAATFLMEQHEPRTPALALASGPCVYVYKNLRPYFKFSLPQLPPNPLEQDLWNQAKEDRIDPLTLKEMLESIRETAEEPLSIQSLRFLQLELSEMEAFVNQHKSNSIKRQTVITTMTTLKKNLADEDAVSCLVLGTENKELLVLDPEAFTILAKMSLPSVPVFLEVSGQFDVEFRLAAACRNGNIYILRRDSKHPKYCIELSAQPVGLIRVHKVLVVGSTQDSLHGFTHKGKKLWTVQMPAAILTMNLLEQHSRGLQAVMAGLANGEVRIYRDKALLNVIHTPDAVTSLCFGRYGREDNTLIMTTRGGGLIIKILKATAVFVEGGSEVGPPPAQAMKLNVPRKTRLYVDQTLREREAGTAMHRAFQTDLYLLRLRAARAYLQALESSLSPLSTTAREPLKLHAVVQGLGPTFKLTLHLQNTSTTRPVLGLLVCFLYNEALYSLPRAFFKVPLLVPGLNYPLETFVESLSNKGISDIIKVLVLREGQSAPLLSAHVNMPGSEGLAAA [R404A]
2,disrupting interaction strength,MAAASSSDSDACGAESNEANSKWLDAHYDPMANIHTFSACLALADLHGDGEYKLVVGDLGPGGQQPRLKVLKGPLVMTESPLPALPAAAATFLMEQHEPRTPALALASGPCVYVYKNLRPYFKFSLPQLPPNPLEQDLWNQAKEDRIDPLTLKEMLESIRETAEEPLSIQSLRFLQLELSEMEAFVNQHKSNSIKRQTVITTMTTLKKNLADEDAVSCLVLGTENKELLVLDPEAFTILAKMSLPSVPVFLEVSGQFDVEFRLAAACRNGNIYILRRDSKHPKYCIELSAQPVGLIRVHKVLVVGSTQDSLHGFTHKGKKLWTVQMPAAILTMNLLEQHSRGLQAVMAGLANGEVRIYRDKALLNVIHTPDAVTSLCFGRYGREDNTLIMTTRGGGLIEKILKRTAVFVEGGSEVGPPPAQAMKLNVPRKTRLYVDQTLREREAGTAMHRAFQTDLYLLRLRAARAYLQALESSLSPLSTTAREPLKLHAVVQGLGPTFKLTLHLQNTSTTRPVLGLLVCFLYNEALYSLPRAFFKVPLLVPGLNYPLETFVESLSNKGISDIIKVLVLREGQSAPLLSAHVNMPGSEGLAAA [I399E]

# Variants of: B2
# Settings: with ARL6, Q9H0F7-1
# Remark: another data set of the same source
row,effect of a mutation on the interaction,Variant
1,disrupting interaction strength,MAAASSSDSDACGAESNEANSKWLDAHYDPMANIHTFSACLALADLHGDGEYKLVVGDLGPGGQQPRLKVLKGPLVMTESPLPALPAAAATFLMEQHEPRTPALALASGPCVYVYKNLRPYFKFSLPQLPPNPLEQDLWNQAKEDRIDPLTLKEMLESIRETAEEPLSIQSLRFLQLELSEMEAFVNQHKSNSIKRQTVITTMTTLKKNLADEDAVSCLVLGTENKELLVLDPEAFTILAKMSLPSVPVFLEVSGQFDVEFRLAAACRNGNIYILRRDSKHPKYCIELSAQPVGLIRVHKVLVVGSTQDSLHGFTHKGKKLWTVQMPAAILTMNLLEQHSRGLQAVMAGLANGEVRIYRDKALLNVIHTPDAVTSLCFGRYGREDNTLIRTTRGGGLIIKILKRTAVFVEGGSEVGPPPAQAMKLNVPRKTRLYVDQTLREREAGTAMHRAFQTDLYLLRLRAARAYLQALESSLSPLSTTAREPLKLHAVVQGLGPTFKLTLHLQNTSTTRPVLGLLVCFLYNEALYSLPRAFFKVPLLVPGLNYPLETFVESLSNKGISDIIKVLVLREGQSAPLLSAHVNMPGSEGLAAA [M390R]
